Assay results as given in the supplement of paper PMC12764529.
± gives the half width of the 95% confidence interval.

What was measured:
[1] = folding stability dG unfold (combined trypsin and chymotrypsin); higher = more stable
Method in brief: (§1)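 Unfolding free energy was derived, per protease or combined, by relating Bayesian-fitted K50 values from sequencing counts to a sequence-predicted unfolded-state K50 and a shared folded-state K50. The underlying digests exposed cysteine-free mini-proteins under 80 residues, in a PA-tagged cDNA display construct, to trypsin and chymotrypsin at 11 threefold-diluted concentrations and to a no-protease condition. A filter kept only designs with AlphaFold2 dimer inter-PAE above 15.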

[2] = folding stability dG unfold from chymotrypsin proteolysis; higher = more stable
Method in brief: as §1

[3] = folding stability dG unfold from trypsin proteolysis; higher = more stable
Method in brief: as §1

Sequence | folding stability dG unfold [1] | folding stability dG unfold [2] | folding stability dG unfold [3]
SAGGSAGGSAGGKKTIVIEINGKKYTITRIEFDKDTKKITIEIEFNGKKLKIEIELPKNLSAGGSAGGSAGG [r7_477_TrROS_Hall] | 3.11 ± 0.27 kcal/mol | 3.31 ± 0.16 kcal/mol | 2.17 ± 0.078 kcal/mol
SAGGSAGGSAGGKKTYVKKIVTEKKKVKLFFYDKKTGELLEEKEVEVIKTKIYVTKPDEFSAGGSAGGSAGG [r7_573_TrMRF] | 0.868 ± 0.26 kcal/mol | 0.884 ± 0.31 kcal/mol | 0.479 ± 0.13 kcal/mol
SAGGSAGGSAGGKKVILIRGLTPEEIEALAKELEELFPDLKVTIERLPGEEGTLLITVDSAGGSAGGSAGGS [r10_852_TrROS_Hall] | 2.38 ± 0.14 kcal/mol | 1.91 ± 0.1 kcal/mol | 2.92 ± 0.17 kcal/mol
SAGGSAGGSAGGKKVKVIKVSVTYDPKTKKLTIKVEKTGKTYTIPLKEIELVNGYLKIKSAGGSAGGSAGGS [r10_942_TrROS_Hall] | 2.21 ± 0.34 kcal/mol | 2.45 ± 0.11 kcal/mol | 1.78 ± 0.11 kcal/mol
SAGGSAGGSAGGKKVKVLTLTIELEVKDSNGKKYKVKATVTLIYDEKTKKLYLNISIEPSAGGSAGGSAGGS [r10_795_TrROS_Hall] | 4.85 ± 0.31 kcal/mol | 5.05 ± 0.19 kcal/mol | 3.95 ± 0.39 kcal/mol
SAGGSAGGSAGGKKVTITITIKVKEGEEITINGKKITVKPGETITITITITVPPKKKKKSAGGSAGGSAGGS [r10_949_TrROS_Hall] | 2.19 ± 0.41 kcal/mol | 2.38 ± 0.31 kcal/mol | 1.57 ± 0.13 kcal/mol
SAGGSAGGSAGGKKVYKVPSLEEALELAKKNKGKTVEIEVDGKKYKFNKNGKIVEIEPVKSAGGSAGGSAGG [r7_532_TrROS_Hall] | 2.14 ± 0.12 kcal/mol | 2.38 ± 0.075 kcal/mol | 1.36 ± 0.084 kcal/mol
SAGGSAGGSAGGKLILKVKVEVVSVKVEPLPGVPGEVKVEVEVKVEVELIEVSEEELKSSAGGSAGGSAGGS [r10_654_TrROS_Hall] | 2.19 ± 0.18 kcal/mol | 2.34 ± 0.098 kcal/mol | 1.88 ± 0.26 kcal/mol
SAGGSAGGSAGGKLIVLPVTSDEVFDFGDGPIPVPAGSIVVLEISPDGAKALVFSPEDLSAGGSAGGSAGGS [r10_353_TrMRF] | 1 ± 0.087 kcal/mol | 0.886 ± 0.065 kcal/mol | 1.12 ± 0.021 kcal/mol
SAGGSAGGSAGGKMKPVTIYIKNKDGSTAKLKVINGKVEITFPNGEKKTISAKDLKIYKSAGGSAGGSAGGS [r10_1176_TrROS_Hall] | 1.22 ± 0.17 kcal/mol | 1.49 ± 0.13 kcal/mol | 0.631 ± 0.086 kcal/mol
SAGGSAGGSAGGKMLLIKITTKDGREFTLEISEEEAKKLAEELKKKFPNQKIEVEIVPLKSAGGSAGGSAGG [r7_349_TrROS_Hall] | 3.21 ± 0.14 kcal/mol | 3.16 ± 0.073 kcal/mol | 3.21 ± 0.18 kcal/mol
SAGGSAGGSAGGKMRLYRFNLKTNKIEEVEAEPGEVIKITFPGKEIVLVVKDGKIELIPSAGGSAGGSAGGS [r10_817_TrROS_Hall] | 0.884 ± 0.21 kcal/mol | 1.2 ± 0.22 kcal/mol | 0.464 ± 0.13 kcal/mol
SAGGSAGGSAGGKMYLIKVKVDGEEKLIKVKSLEEAKKLLEEKGYKIESVEIFEVEEEEESAGGSAGGSAGG [r7_726_TrROS_Hall] | 4.09 ± 0.073 kcal/mol | 4.07 ± 0.059 kcal/mol | 4.14 ± 0.23 kcal/mol
SAGGSAGGSAGGKNKYYVRVKIKNPNGRTRKINFPFDDPDQIKEQAQKEGWKIDEVEPVSAGGSAGGSAGGS [r10_882_TrROS] | -0.121 ± 0.18 kcal/mol | -0.064 ± 0.29 kcal/mol | -0.319 ± 0.25 kcal/mol
SAGGSAGGSAGGKPGEKKRYRFPAPKFELVSKVKVRVKVLNEDTNELYEKEVEVFVLKLTSAGGSAGGSAGG [r7_64_TrROS_Hall] | 2.14 ± 0.21 kcal/mol | 2.77 ± 0.16 kcal/mol | 1.12 ± 0.045 kcal/mol
SAGGSAGGSAGGKPKLTLTLTLKRTVKNKNGKTTEKTLTLTLTFDSKEEAENALKELGFSAGGSAGGSAGGS [r10_1062_TrROS_Hall] | 2.67 ± 0.099 kcal/mol | 2.92 ± 0.042 kcal/mol | 2.18 ± 0.033 kcal/mol
SAGGSAGGSAGGKPLYLRITVKNKDGSEREIVVPLDTTIDDILAALPPNVTEVKIEVFPVSAGGSAGGSAGG [r7_288_TrROS_Hall] | 3.52 ± 0.13 kcal/mol | 3.52 ± 0.13 kcal/mol | 3.36 ± 0.11 kcal/mol
SAGGSAGGSAGGKPNEVRVANIPIYRRLENGGWELIRPLPIVVPVDASVDFVLDAFKKYSAGGSAGGSAGGS [r10_470_TrMRF] | 0.658 ± 0.048 kcal/mol | 0.815 ± 0.076 kcal/mol | 0.392 ± 0.041 kcal/mol
SAGGSAGGSAGGKPTITVTYDKENNTVTITFPDGSKIEITVPENATEEEVKKLVEELAKSAGGSAGGSAGGS [r10_33_TrROS_Hall] | 2.97 ± 0.22 kcal/mol | 3.13 ± 0.11 kcal/mol | 2.62 ± 0.18 kcal/mol
SAGGSAGGSAGGKTIRFKAKSPEEIAEKIKKGEEILTPDGKPVKITKVEPLPDGSVLITGSAGGSAGGSAGG [r11_48_TrMRF] | 0.46 ± 0.081 kcal/mol | 0.588 ± 0.18 kcal/mol | 0.0865 ± 0.17 kcal/mol
SAGGSAGGSAGGKTLTLEIEINGKLYKIEFSGDSIKITEIKVKPKPKKKEFFSEEELKKKSAGGSAGGSAGG [r7_748_TrROS_Hall] | 1.87 ± 0.31 kcal/mol | 2.55 ± 0.13 kcal/mol | 0.563 ± 0.089 kcal/mol
SAGGSAGGSAGGKTYKITVSSGDTYLTISIELPDGLVLTYKITPNSIEVEIKPLKDFNESAGGSAGGSAGGS [r10_1169_TrMRF] | 5.51 ± 0.43 kcal/mol | 5.3 ± 0.2 kcal/mol | 3.42 ± 0.19 kcal/mol
SAGGSAGGSAGGKTYRVKVRIYNPETGEVLEIEVEVETDTEEEAKRAAENLARELLKKSSAGGSAGGSAGGS [r10_863_TrROS_Hall] | 3.47 ± 0.12 kcal/mol | 3.7 ± 0.058 kcal/mol | 2.69 ± 0.045 kcal/mol
SAGGSAGGSAGGKTYTADEIKKIKKINGKWYVEIDGKTYEIPAKDIKIKKGDKIKIYPVSAGGSAGGSAGGS [r10_665_TrROS_Hall] | 1.57 ± 0.16 kcal/mol | 1.59 ± 0.091 kcal/mol | 1.45 ± 0.059 kcal/mol
SAGGSAGGSAGGKVEIYENPSTPYLVVVVYNPETGEKTVVLFKPDNPELAEKVAKELASSAGGSAGGSAGGS [r10_1117_TrMRF] | 1.38 ± 0.11 kcal/mol | 1.81 ± 0.16 kcal/mol | 0.711 ± 0.077 kcal/mol
SAGGSAGGSAGGKVITVELPDDVTVTFFIPEDPDIVPVEVTPPDGSTLTLPAKDIRELLGSAGGSAGGSAGG [r7_769_TrMRF] | 0.364 ± 0.1 kcal/mol | 0.49 ± 0.12 kcal/mol | 0.159 ± 0.049 kcal/mol
